From ChEMBL document CHEMBL5579804, “Synthesis and kinetic evaluation of phosphomimetic inhibitors targeting type B ribose-5-phosphate isomerase from Mycobacterium tuberculosis” (Bioorg Med Chem Lett, 2024)

Assays:
[1] = compound: O=P(O)(O)OC[C@H]1O[C@@H](O)[C@H](O)[C@@H]1O; assay: Competitive inhibition of Mycobacterium tuberculosis H37Rv RPIB extracted from Escherichia coli BL21 assessed as Km using D-ribose-5-phosphate as substrate incubated for 10 mins by ultraviolet absorbance based spectrophotometric analysis
[2] = compound: O=P(O)(O)OC[C@H]1O[C@@H](O)[C@H](O)[C@@H]1O; assay: Competitive inhibition of Mycobacterium tuberculosis RPIB assessed as Km using D-ribose-5-phosphate as substrate by ultraviolet absorbance based spectrophotometric analysis
[3] = compound: O=P(O)(O)OC[C@H]1O[C@@H](O)[C@H](O)[C@@H]1O; assay: Competitive inhibition of Mycobacterium tuberculosis RPIB assessed as Km using D-ribose-5-phosphate as substrate by spectrophotometric analysis
[4] = compound: O=P(O)(O)OC[C@H]1O[C@@H](O)[C@H](O)[C@@H]1O; assay: Competitive inhibition of Mycobacterium tuberculosis RPIB assessed as Km using D-ribose-5-phosphate as substrate
[5] = compound: O=P(O)(O)OC[C@H]1O[C@@H](O)[C@H](O)[C@@H]1O; assay: Competitive inhibition of Escherichia coli RPIB assessed as Km using D-ribose-5-phosphate as substrate
[6] = compound: O=P(O)(O)OC[C@H]1O[C@@H](O)[C@H](O)[C@@H]1O; assay: Competitive inhibition of Escherichia coli RPIB assessed as Km using D-ribose-5-phosphate as substrate by ultraviolet absorbance based spectrophotometric analysis
[7] = compound: O=P(O)(O)OC[C@H]1O[C@@H](O)[C@H](O)[C@@H]1O; assay: Competitive inhibition of Escherichia coli RPIB assessed as Km using D-ribose-5-phosphate as substrate by spectrophotometric analysis
[8] = compound: O=P(O)(O)OC[C@H]1O[C@@H](O)[C@H](O)[C@@H]1O; assay: Competitive inhibition of Spinacia oleracea RPIA assessed as Km using D-ribose-5-phosphate as substrate by ultraviolet absorbance based spectrophotometric analysis
[9] = compound: O=P(O)(O)OC[C@H]1O[C@@H](O)[C@H](O)[C@@H]1O; assay: Competitive inhibition of Spinacia oleracea RPIA assessed as Km using D-ribose-5-phosphate as substrate by Michaelis-Menten kinetics analysis
[10] = compound: O=P(O)(O)OC[C@H]1O[C@@H](O)[C@H](O)[C@@H]1O; assay: Competitive inhibition of Spinacia oleracea RPIA assessed as Km using D-ribose-5-phosphate as substrate

B1: Ribose-5-phosphate isomerase B (Mycobacterium tuberculosis), P9WKD7 (protein)
chain: MSGMRVYLGADHAGYELKQRIIEHLKQTGHEPIDCGALRYDADDDYPAFCIAAATRTVADPGSLGIVLGGSGNGEQIAANKVPGARCALAWSVQTAALAREHNNAQLIGIGGRMHTVAEALAIVDAFVTTPWSKAQRHQRRIDILAEYERTHEAPPVPGAPA
- Km [1]: 3700 µM
- Km [2]: 1000 µM
- Km [3]: 3100 µM
- Km [4]: 2100 µM

B2: Ribose-5-phosphate isomerase B (Escherichia coli (strain K12)), P37351 (protein)
chain: MKKIAFGCDHVGFILKHEIVAHLVERGVEVIDKGTWSSERTDYPHYASQVALAVAGGEVDGGILICGTGVGISIAANKFAGIRAVVCSEPYSAQLSRQHNDTNVLAFGSRVVGLELAKMIVDAWLGAQYEGGRHQQRVEAITAIEQRRN
- Km [5]: 1600 µM
- Km [6]: 1100 µM
- Km [7]: 1500 µM

B3: ribose-5-phosphate isomerase (Spinacia oleracea), Q8RU73 (protein)
chain: MASAAFSLLPSTSSTTFNRHATTKLLNLKFLHNHRNKPFFTTTIKSLSSPSPTPVLTQDDLKKLAAEKAVDSVKSGMVLGLGTGSTAAFAVSRIGELLSAGKLTNIVGIPTSKRTAEQAASLGIPLSVLDDHPRIDLAIDGADEVDPDLNLVKGRGGALLREKMVEAASDKFIVVVDDTKLVDGLGGSRLAMPVEVVQFCWKYNLKRLQEIFKELGCEAKLRMEGDSSPYVTDNSNYIVDLYFPTSIKDAEAAGREISALEGVVEHGLFLGMASEVIIAGKTGVSVKTK
- Km [8]: 3300 µM
- Km [9]: 7500 µM
- Km [10]: 3000 µM
